Legend:
[1] = molecular target: T1, IslA (isethionate sulfite-lyase) (Bilophila wadsworthia, UniProt E5Y378); experiment: X-ray crystal structure, […] Å; assay type: binding; conditions: unactivated enzyme, aerobic, 30 mM sodium isethionate, pH 7.5, 22 °C; active site
T1 construct: full length, 830 residues, N-terminal His-tag kept (pET-28a), expressed in E. coli BL21(DE3); homodimer

O=S(=O)(O)CCO [2] = experiment: purified protein; conditions: IslA activated by IslB and S-adenosylmethionine, anoxic, 30 °C, isethionate 1-50 mM, kcat not normalized to glycyl radical content
O=S(=O)(O)CCO [3] = experiment: purified protein; assay type: biochemical, Bilophila wadsworthia; conditions: IslA activated by IslB and S-adenosylmethionine, anoxic, 30 °C, isethionate 1-50 mM, kcat not normalized to glycyl radical content
[4] = molecular target: the molecule itself; experiment: crystal structure; hanging drop vapor diffusion at 22°C, aerobic; unactivated IslA with intact N-terminal His-tag, 7.5 mg/mL in 50 mM HEPES pH 7.5, 50 mM NaCl; glycerol-bound (2.26 Å, P21212) and isethionate-bound (2.70 Å, P212121) crystal forms

`O=S(=O)(O)CCO` [isethionate, 2-hydroxyethanesulfonate] was tested, and the “X-ray crystal structure, 2.70 Å” value [1] was “a second IslA structure with the substrate Ise bound was obtained”.

Work on “IslA (isethionate sulfite-lyase) (Bilophila wadsworthia 3_1_6)” yielded a Km (O=S(=O)(O)CCO [2]) of 8 ± 2 mM.

“IslA (isethionate sulfite-lyase) (Bilophila wadsworthia 3_1_6; F682A)” gave a Km (O=S(=O)(O)CCO [3]) of 6.8 ± 0.6 mM and a kcat (O=S(=O)(O)CCO [3]) of 0.0171 ± 0.0004 s⁻¹.

Molecule “IslA (isethionate sulfite-lyase) (Bilophila wadsworthia 3_1_6; F682Y)” has a Km (O=S(=O)(O)CCO [3]) of 8 ± 1 mM and a kcat (O=S(=O)(O)CCO [3]) of 0.0074 ± 0.0003 s⁻¹.

With “IslA (isethionate sulfite-lyase) (Bilophila wadsworthia 3_1_6; I192A)” the Km (O=S(=O)(O)CCO [3]) was 12 ± 2 mM and the kcat (O=S(=O)(O)CCO [3]) was 0.4 ± 0.02 s⁻¹.

In the case of “IslA (isethionate sulfite-lyase) (Bilophila wadsworthia 3_1_6; W374F)”, the Km (O=S(=O)(O)CCO [3]) is reported as 11 ± 1 mM and the kcat (O=S(=O)(O)CCO [3]) is reported as 0.063 ± 0.003 s⁻¹.

Molecule “IslA (isethionate sulfite-lyase) (Bilophila wadsworthia 3_1_6; W374Y)” has a Km (O=S(=O)(O)CCO [3]) of 16.0 ± 0.9 mM and a kcat (O=S(=O)(O)CCO [3]) of 0.14 ± 0.003 s⁻¹.

B1: isethionate sulfite-lyase (IslA) from Bilophila wadsworthia 3.1.6 (enzyme)
chain: MTQVAEIKSPHEQRLEDNIAGKEDIYRESHKRVFKLLERFDGQKPAIDVERALYFTQSMAETVGQPLVLRWAKALMNVAKNITVMVQDDQLLLGRCGGHDGRYGILYPELDGDFLDIAVRDLPTRPQSPASISPEDAKIVVEQIAPFWKGRTYHEALNKALPAEVHKLTYDDPDGLISRFIVNETSSFRSSIQWVHDYEVVLKRGFNGLKQEMEEKLAALDPASPVDQVDKRPFIEATILVCDAIVLWAKRHADAARKAAEACADPVRKAELIRMAENAEHVPANPARDFYEAVQSQYFTQMFSRLEQKTGTTISNGRMDQYFYPFYKKDMEAGILTDEKTLEYLECMWVGMAEFIDMYISPAGGAFNEGYAHWEAVTIGGQTPDGRDATNDLTYLFLKSKREFPLHYPDLAARIHSRAPERYLWDVAETIKFGSGFPKLCNDEECIPLYVSKGATFEEALDYAVSGCIEIRMPNRDTYTSGGAYTNFASAVEMALYDGKMKKYGDVQLGIQTGDARKFKSWDEFWNAYVQQHMLLLRTTFIQQYIVIQTRAKHFAQPMGSVLHALCRKHCIDLHQPQIPEGLNFGYFEFMGLGTVIDSLAAIKKLVFEDKKLTMDQLIDALEANFEGYEDIQQLLRTAPCYGNDDEYADEIGRELDRMAVSFAAKYGKEMGINNDARYVPFTSHVPFGKVVSATPNGRVAWFPLADGSSPSHGADHNGPTAILLSNHNTKNYGMRARAARLINVKFTPKCVEGDAGTEKLVQFIRTWCDLKLWHIQFNVINADTLKKAQKDPQKYRNLIVRIAGYSAYFVDLTPDLQNDLIARTGHDQM
notes: Isethionate sulfite-lyase IslA, Bilophila wadsworthia 3.1.6, wild type; expressed from pET-28a-IslA (Peck et al., 2019); It calls the structure native/wild-type and gives '6-830 (of 830 residues)', so the whole protein is likely, but the words 'full length' are not used; also called IsIA; wild-type IslA; source: E. coli BL21(DE3), purified (Ni-NTA, dialysis); not shown: His-tag, N-terminal, kept
In the case of B1, the “stoichiometry N” value [4] is reported as 2.

Reference: PMC8473560, “Molecular basis of C-S bond cleavage in the glycyl radical enzyme isethionate sulfite-lyase” (Cell Chemical Biology, 2021)
